{"source": "patent US20260193335A1", "about": "(ZOETIS SERVICES, published 2026)", "binders": {"B1": {"name": "mAb2 (felinized anti-NGF antibody) wild-type, feline IgG1a (antibody, part only; not given: Anti-NGF heavy and light variable domains, part only)", "heavy, part": "ASTTAPSVFPLAPSCGTTSGATVALACLVLGYFPEPVTVSWNSGALTSGVHTFPAVLQASGLYSLSSMVTVPSSRWLSDTFTCNVAHPPSNTKVDKTVRKTDHPPGPKPCDCPKCPPPEMLGGPSIFIFPPKPKDTLSISRTPEVTCLVVDLGPDDSDVQITWFVDNTQVYTAKTSPREEQFNSTYRVVSVLPILHQDWLKGKEFKCKVNSKSLPSPIERTISKAKGQPHEPQVYVLPPAQEELSRNKVSVTCLIKSFHPPDIAVEWEITGQPEPENNYRTTPPQLDSDGTYFVYSKLSVDRSHWQRGNTYTCSVSHEALHSHHTQKSLTQSPGK"}, "B2": {"name": "mAb2 (felinized anti-NGF antibody) S428L, feline IgG1a (antibody, part only; not given: Anti-NGF heavy and light variable domains, part only)", "heavy, part": "B1 heavy, part with S316L"}, "B3": {"name": "mAb6 (felinized anti-TGFβ antibody of Tables 1 and 2) S428L, feline IgG1a (antibody, part only; not given: Anti-TGFβ variable domains, antibody unnamed, part only)", "heavy, part": "B1 heavy, part with S316L"}, "B4": {"name": "mAb6 (felinized anti-TGFβ antibody of Tables 1 and 2) wild-type, feline IgG1a (antibody, part only; not given: Anti-TGFβ variable domains, antibody unnamed, part only)", "heavy, part": "B1 heavy, part"}, "B5": {"name": "mAb1 (felinized anti-IL31 antibody) S428L, feline IgG1a (antibody, part only; not given: Anti-IL31 heavy and light variable domains, part only)", "heavy, part": "B1 heavy, part with S316L"}, "B6": {"name": "mAb1 (felinized anti-IL31 antibody) wild-type, feline IgG1a (antibody, part only; not given: Anti-IL31 heavy and light variable domains, part only)", "heavy, part": "B1 heavy, part"}, "B7": {"name": "mAb4 (felinized anti-IL31 antibody ZTS-5864) S428M and S434W, feline IgG1a (antibody)", "heavy": "DVQLVESGGDLVKPGGSLRLTCVASGFTFSDYAMSWVRQAPGKGLQWVAGIDSVGSGTSYADSVKGRFTISRDNAKNTLYLQMNSLKTEDTATYYCASGFPGSFEHWGQGTLVTVSSASTTAPSVFPLAPSCGTTSGATVALACLVLGYFPEPVTVSWNSGALTSGVHTFPAVLQASGLYSLSSMVTVPSSRWLSDTFTCNVAHPPSNTKVDKTVRKTDHPPGPKPCDCPKCPPPEMLGGPSIFIFPPKPKDTLSISRTPEVTCLVVDLGPDDSDVQITWFVDNTQVYTAKTSPREEQFNSTYRVVSVLPILHQDWLKGKEFKCKVNSKSLPSPIERTISKAKGQPHEPQVYVLPPAQEELSRNKVSVTCLIKSFHPPDIAVEWEITGQPEPENNYRTTPPQLDSDGTYFVYSKLSVDRSHWQRGNTYTCSVMHEALHWHHTQKSLTQSPGK", "VL": "QSVLTQPSSVSGTLGQRITISCTGSSSNIGSGYVGWYQQVPGMGPKTVIYYNSDRPSGVPDRFSGSKSGSSGTLTITGLQAEDEADYYCSVYDRTFNAVFGGGT", "notes": "also called mAb4 ID No. 36"}, "B8": {"name": "mAb4 (felinized anti-IL31 antibody ZTS-5864) S428Y and S434W, feline IgG1a (antibody)", "heavy": "B7 heavy with M433Y", "VL": "B7 VL", "notes": "also called mAb4 ID No. 31"}, "B9": {"name": "mAb4 (felinized anti-IL31 antibody ZTS-5864) S428M and S434F, feline IgG1a (antibody)", "heavy": "B7 heavy with W439F", "VL": "B7 VL", "notes": "also called mAb4 ID No. 33"}, "B10": {"name": "mAb4 (felinized anti-IL31 antibody ZTS-5864) S428W, feline IgG1a (antibody)", "heavy": "B7 heavy with M433W, W439S", "VL": "B7 VL", "notes": "also called mAb4 ID No. 19"}, "B11": {"name": "mAb4 (felinized anti-IL31 antibody ZTS-5864) S428R, feline IgG1a (antibody)", "heavy": "B7 heavy with M433R, W439S", "VL": "B7 VL", "notes": "also called mAb4 ID No. 16"}, "B12": {"name": "mAb4 (felinized anti-IL31 antibody ZTS-5864) S428Q, feline IgG1a (antibody)", "heavy": "B7 heavy with M433Q, W439S", "VL": "B7 VL", "notes": "also called mAb4 ID No. 15"}, "B13": {"name": "mAb4 (felinized anti-IL31 antibody ZTS-5864) S428P, feline IgG1a (antibody)", "heavy": "B7 heavy with M433P, W439S", "VL": "B7 VL", "notes": "also called mAb4 ID No. 14"}, "B14": {"name": "mAb4 (felinized anti-IL31 antibody ZTS-5864) S428T, feline IgG1a (antibody)", "heavy": "B7 heavy with M433T, W439S", "VL": "B7 VL", "notes": "also called mAb4 ID No. 17"}, "B15": {"name": "mAb4 (felinized anti-IL31 antibody ZTS-5864) WT, feline IgG1a (antibody)", "heavy": "B7 heavy with M433S, W439S", "VL": "B7 VL", "notes": "The same holds for all mAb4 variants; also called mAb4 ID No. 1"}, "B16": {"name": "mAb4 (felinized anti-IL31 antibody ZTS-5864) S428L, feline IgG1a (antibody)", "heavy": "B7 heavy with M433L, W439S", "VL": "B7 VL", "notes": "also called mAb4 ID No. 11"}, "B17": {"name": "mAb4 (felinized anti-IL31 antibody ZTS-5864) S434H, feline IgG1a (antibody)", "heavy": "B7 heavy with M433S, W439H", "VL": "B7 VL", "notes": "also called mAb4 ID No. 00"}}, "note": "Positions count from the first letter of the chain named. Numbers in names are those of the source."}
{"target": "NGF (target of felinized anti-NGF antibodies mAb2 and mAb3)", "test": "cell-based or functional assay", "units": {"IC50 (cell based potency assay)": "nM"}}
{"binder": "B1", "IC50 (cell based potency assay)": 0.69}
{"binder": "B2", "IC50 (cell based potency assay)": 0.58}
{"target": "TGFβ (target of felinized anti-TGFβ antibody mAb6)", "test": "cell-based or functional assay", "units": {"IC50 (cell based potency assay)": "nM"}}
{"binder": "B3", "IC50 (cell based potency assay)": 10}
{"binder": "B4", "IC50 (cell based potency assay)": 9}
{"target": "IL31 (target of felinized anti-IL31 antibody mAb1)", "test": "SPR Biacore T200, target amine-coupled, 15 C", "units": {"Kd": "nM"}}
{"binder": "B5", "Kd": 0.0228}
{"binder": "B6", "Kd": 0.0223}
{"target": "NGF (target of felinized anti-NGF antibodies mAb2 and mAb3)", "test": "SPR Biacore T200, target amine-coupled, 15 C", "units": {"Kd": "nM"}}
{"binder": "B1", "Kd": 0.023}
{"binder": "B2", "Kd": 0.008}
{"target": "TGFβ (target of felinized anti-TGFβ antibody mAb6)", "test": "SPR Biacore T200, target amine-coupled, 15 C", "units": {"Kd": "nM"}}
{"binder": "B3", "Kd": 0.0843}
{"binder": "B4", "Kd": 0.00375}
{"target": "Feline FcRn (complex of FcRn-α subunit and β-microglobulin, C-terminal His tag) (feline)", "sequence (chain, as listed by the source, chain 1 of 2)": "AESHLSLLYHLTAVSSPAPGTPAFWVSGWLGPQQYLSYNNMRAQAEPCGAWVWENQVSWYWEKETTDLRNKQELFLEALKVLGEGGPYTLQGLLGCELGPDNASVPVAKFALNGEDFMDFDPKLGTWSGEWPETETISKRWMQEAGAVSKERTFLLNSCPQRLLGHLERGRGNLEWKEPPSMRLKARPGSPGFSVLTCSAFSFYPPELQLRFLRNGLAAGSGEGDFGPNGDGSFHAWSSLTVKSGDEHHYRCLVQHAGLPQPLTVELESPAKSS", "sequence (Q5MGS7 21-118, chain 2 of 2)": "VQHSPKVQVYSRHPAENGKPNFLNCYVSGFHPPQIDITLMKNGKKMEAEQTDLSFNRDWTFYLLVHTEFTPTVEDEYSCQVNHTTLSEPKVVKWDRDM", "test": "SPR Biacore, FcRn amine-coupled on CM5, pH 6", "units": {"Kd": "nM"}}
{"binder": "B1", "Kd": 25}
{"binder": "B2", "Kd": 1.51}
{"binder": "B3", "Kd": 15}
{"binder": "B5", "Kd": 3.77}
{"binder": "B6", "Kd": 12.1}
{"binder": "B4", "Kd": 120}
{"target": "Feline FcRn (complex of FcRn-α subunit and β-microglobulin, C-terminal His tag) (feline)", "test": "SPR Biacore, FcRn amine-coupled on CM5, pH 7.2", "units": {"Kd": "nM"}}
{"binder": "B1", "Kd": 380}
{"binder": "B2", "Kd": 60}
{"binder": "B3", "Kd": 230}
{"binder": "B5", "Kd": 180}
{"target": "T1, Feline FcRn (complex of FcRn-α subunit and β-microglobulin, C-terminal His tag) (feline, UniProt A0ABI7ZNY9 23-296; Q5MGS7 21-118)", "T1 construct": "treated here as one molecule", "test": "SPR Biacore, biotin-FcRn on SA chip, pH 6", "experimental": "(§1) Feline FcRn was isolated, prepared and mutant Fc IgGs were assayed against feline FcRn according to Strietzel et. al., discussed above. Standard PCR was used to amplify feline FcRn-α subunit and β-microglobulin. FcRn-α subunit and β-microglobulin were co-transfected into HEK 293 cells and the FcRn complex was purified by IMAC affinity purification via the c-terminal His tag. FcRn complex was biotin labeled through BirA enzymatic biotinylatoin reaction. KD's were measured by Biacore T200 (GE Healthcare, Pittsburgh, PA, USA) or Biacore 8K (Cytiva, Marlborough, MA, USA) using a SA sensor chip.\n(§2) FcRn was captured on the surface of the sensor using a modified SA capture method. 10 mM MES; 150 mM NaCl; 0.005% Tween20; 0.5 mg/mL BSA; pH6 was used as capture, method running buffer and titrations. 1×HBS-P, 0.5 mg/mL BSA; pH7.4 was also used for method running buffer and titrations. Fc mutant IgGs were flowed over receptor surfaces and affinity was determined using T200 evaluation software or Biacore Insight Evaluation software. Blank runs containing buffer only were subtracted out from all runs. Flow cells were regenerated using 50 mM Tris pH8 or pH9. Runs were performed at 15° C.", "units": {"Kd": "nM"}}
{"binder": "B7", "Kd": 6.83}
{"binder": "B8", "Kd": 7.8}
{"binder": "B9", "Kd": 4.29}
{"target": "T1, Feline FcRn (complex of FcRn-α subunit …)", "test": "SPR Biacore, biotin-FcRn on SA chip, pH 7.4", "experimental": "as §1, §2", "units": {"Kd": "nM"}}
{"binder": "B10", "binding result": "no binding"}
{"binder": "B11", "binding result": "no binding"}
{"binder": "B12", "binding result": "no binding"}
{"binder": "B13", "binding result": "no binding"}
{"binder": "B7", "Kd": 5010}
{"binder": "B8", "Kd": 431}
{"binder": "B14", "binding result": "no binding"}
{"binder": "B9", "Kd": 4010}
{"target": "T1, Feline FcRn (complex of FcRn-α subunit …)", "test": "SPR Biacore, biotin-FcRn on SA chip, pH 6; pH 6", "experimental": "as §1, §2", "units": {"Kd": "nM"}}
{"binder": "B15", "Kd": 32}
{"binder": "B16", "Kd": 15.5}
{"binder": "B17", "Kd": 4.88}
